Source: article doi:10.1101/2021.02.02.429416

Columns and labels:
[1] = biological target: KP-VR2 (human); experiment: BLI
[2] = biological target: Aflibercept; experiment: ELISA
[3] = biological target: KP-VR2 (human); experiment: ELISA

- Kd [1]: 0.78 nM
- EC50 [2]: 30.5 nM
- EC50 [3]: 2.39 nM
B1: Human PlGF-1 (ligand)
chain: LPAVPPQQWALSAGNGSSEVEVVPFQEVWGRSYCRALERLVDVVSEYPSEVEHMFSPSCVSLLRCTGCCGDENLHCVPVETANVTMQLLKIRSGDRPSYVELTFSQHVRCECRPLREKMKPERCGDAVPRR
